Tests used:
[1] = target: high affinity CTGF receptors on NRK-49F rat fibroblasts (rat); assay: 125I-rhCTGF binding to cell monolayers, Scatchard / competition with unlabeled CTGF
[2] = target: high affinity CTGF receptors on primary rat articular chondrocytes (rat); assay: as above
[3] = target: low affinity CTGF receptors on NRK-49F rat fibroblasts (rat); assay: as above
[4] = target: low affinity CTGF receptors on primary rat articular chondrocytes (rat); assay: as above
[5] = target: low affinity CTGF receptors on mouse fibroblasts (NTH3T3) (mouse); assay: 125I-rhCTGF binding to cells, competition binding assay
[6] = target: high affinity CTGF receptors on mouse fibroblasts (NTH3T3) (mouse); assay: as above

Kd [1]: 0.013 to 0.023 nM
Kd [2]: 0.021 nM
Kd [3]: 1.1 to 2.2 nM
Kd [4]: 1 nM
Sites/cell [4]: 150000 sites/cell
Kd [5]: 1.8 nM
Sites/cell [5]: 102000 sites/cell
Kd [6]: 0.005 to 0.01 nM
Sites/cell [6]: 480 sites/cell
Substance: iodinated recombinant human Connective Tissue Growth Factor (rhCTGF) (from UniProt P29279 27-349) (ligand)

Reference: patent US6464983
